Assay results: paper PMC5700813, “A recombinant BBSome core complex and how it interacts with ciliary cargo” (eLife, 2017)
“And” between values parts separate entries of the source, which are not always exact repeats. Identical values can stand only once.

Assay: Solubility of purified core BBSome
Assay type: physicochemical
Conditions: purified 6mer core BBSome
Protocol: The 6mer core BBSome could readily be purified in milligram quantities, and is soluble up to concentrations higher than 150 µM (>50 mg/ml). A single Strep affinity purification yielded almost pure complex with no obvious imbalance in the stoichiometry of components. The complex eluted as a single entity in all subsequent purification steps (Figure 1—figure supplement 3E), and was even resistant to high salt washes of up to 2.5 M NaCl, consistent with a previous study where the native BBSome was eluted with high salt concentrations from an Arl6 affinity column ([Jin et al., 2010]). The complex elutes in gel filtration with an apparent molecular weight of ~400 kDa, in acceptable agreement with the expected theoretical mass of 336.4 kDa (Figure 1—figure supplement 3C,D), but less consistent with it being a dimer.

In the case of “6mer core BBSome: recombinant human subcomplex composed of BBS1, 4, 5, 8, 9 and 18”, the “soluble up to concentration” value is reported as “higher than 150 µM and > 50 mg/ml”.
